Measurements reported in the supplement of paper PMC12042874.
± gives the uncertainty stated by the source.

Experiment: amyloid nucleation score (Sup35N fusion, yeast selection) (log enrichment); library NNK1; higher = more nucleation; inactive = no reads after selection
In short: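 After 24 hours of induction with 100 μM copper sulfate, psi-negative yeast expressing peptides of 20 random codons fused to Sup35N were grown for 7 days at 30°C on medium lacking adenine and uracil. Input and output plasmid inserts were sequenced with Illumina, and sequences with under 100 input reads were discarded. Scores for nucleation are the DiMSum log enrichment of output over input reads, centred on the mode score of non-aggregating sequences.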
In the case of FQVCLVLSAHVRPQRYFKSW, the amyloid nucleation score is reported as -0.429 ± 0.8. Work on FQVVFGYSFMNMATISCVYE yielded an amyloid nucleation score of 5.03 ± 0.054. FRDMYCARNIACSFLLVVAC gave an amyloid nucleation score of 1.1 ± 0.19. FREVMTGSNYRPTC showed an amyloid nucleation score of 0.158 ± 0.64. Substance FRFELYRLPVSDSLMKDLQL has an amyloid nucleation score of 0.998 ± 0.58. For FRFLKEASKCKPVTVMSPSW, the amyloid nucleation score was 0.123 ± 0.7. With FRFRLGNFGLRFRGYPERII the amyloid nucleation score was 0.405 ± 0.3. For FRGEVYELEIKGKILSSVFV, the amyloid nucleation score was 0.121 ± 0.24. For FRGMGAS, the amyloid nucleation score was 0.617 ± 0.62. Work on FRKLKTAYDFFHCRCPHSNA yielded an amyloid nucleation score of 0.373 ± 0.78. In the case of FRQFCCV, the amyloid nucleation score is reported as “inactive”. For FRTATWNKIGAQDRVKSISV, the amyloid nucleation score was -1.06 ± 2.7. With FRTHD the amyloid nucleation score was 0.351 ± 0.97. Work on FRWNLQAWQEVSGAGQRAVV yielded an amyloid nucleation score of -0.014 ± 0.76. In the case of FSCMRWM, the amyloid nucleation score is reported as 0.73 ± 0.43. FSCVIGFPKHRNDTLVTERA gave an amyloid nucleation score of 6.65 ± 0.067. Substance FSDMDVTQPENKDWHLEE has an amyloid nucleation score of 1.23 ± 0.9. Work on FSHDRGYLIFQVIRGHHCFM yielded an amyloid nucleation score of 0.277 ± 0.57. Substance FSHKRW has an amyloid nucleation score of -0.479 ± 0.48. Work on FSIAASASTLFDGFVIWRF yielded an amyloid nucleation score of 0.027 ± 0.5. For FSIRTFVIRFTLMEHLSLEL, the amyloid nucleation score was 0.266 ± 0.52. FSKFSAVVDDPVCWKRLIFL gave an amyloid nucleation score of -0.57 ± 0.53. FSKLWSVWLRLCLKG gave an amyloid nucleation score of 0.334 ± 0.52. FSLDSRITANLTKWEEMLVQ showed an amyloid nucleation score of -0.779 ± 0.41. In the case of FSLVATGSYITLDSVLMDVL, the amyloid nucleation score is reported as 0.728 ± 0.44. With FSLYAPSTPYSSMVRIRLSD the amyloid nucleation score was “inactive”. FSMTCYVWLITLAKMTRTFQ showed an amyloid nucleation score of 0.159 ± 0.73. FSMWRSWNNNYSLISHSTGH gave an amyloid nucleation score of 0.367 ± 1.2. With FSNTCWNLKYHSNGAANFFV the amyloid nucleation score was 0.136 ± 0.96. FSRDLLARGVDTPSVEFRSS showed an amyloid nucleation score of -0.362 ± 0.72. FSRKINVYG gave an amyloid nucleation score of -0.396 ± 0.66. In the case of FSSFESCCRRYSSM, the amyloid nucleation score is reported as 0.576 ± 0.93. In the case of FSTFVGHYLSKMKWITVVNS, the amyloid nucleation score is reported as 0.531 ± 0.36. With FSTIGCKSMAVNCSFWYWSR the amyloid nucleation score was 6.196 ± 0.047. In the case of FSVGYDNGMDNM, the amyloid nucleation score is reported as 0.426 ± 0.29. Substance FSVRNSSVILEHGVWLNCQG has an amyloid nucleation score of 0.03 ± 0.97. FTCSTYNCWGVHS showed an amyloid nucleation score of 1.26 ± 0.37. With FTDSTRFGSYLLSSAMFPTM the amyloid nucleation score was -1.65 ± 2.7. FTIVLELFRNFSRSKVYEDV gave an amyloid nucleation score of -0.756 ± 2.4. With FTLHVSFRGSDDIKSVFYCS the amyloid nucleation score was 3.29 ± 0.11. FTLLTAPGMATHLRTGMRSR gave an amyloid nucleation score of 0.51 ± 0.56. FTLSPLGCVYYDT gave an amyloid nucleation score of 0.712 ± 0.72. Substance FTMSTISCSGSDTIVID has an amyloid nucleation score of -0.503 ± 0.25. FTNNVLNINVRG showed an amyloid nucleation score of 0.253 ± 1.2. In the case of FTSPLKNHHLFGFAS, the amyloid nucleation score is reported as -0.345 ± 0.6. FVDSFVNIWLIKTFSRIVVD showed an amyloid nucleation score of 0.161 ± 0.3. In the case of FVFGTFA, the amyloid nucleation score is reported as 0.485 ± 0.59. With FVKSKGWVCAGFLYIASL the amyloid nucleation score was 0.53 ± 0.75. Substance FVLADYVGAARVRGTTLFAE has an amyloid nucleation score of 0.406 ± 0.53. Substance FVLSNIPVAYLANANNAFHF has an amyloid nucleation score of 0.677 ± 0.52. FVMHSSSM showed an amyloid nucleation score of -0.34 ± 0.53. FVRCSAKMDLWSVLTVCSFC showed an amyloid nucleation score of 3.2 ± 0.12. For FVSSVGKSEQVPSTEFFCVS, the amyloid nucleation score was 0.174 ± 1.5. With FVTDCLHYRRTWQLGC the amyloid nucleation score was 0.419 ± 0.28. FVVQPYHYKSY showed an amyloid nucleation score of 0.264 ± 0.34. With FVVSDRGWTQALRHYPDTRM the amyloid nucleation score was -0.25 ± 0.34. For FWAHMMRIASNYKFSLYL, the amyloid nucleation score was “inactive”. Work on FWDVVKLNGGSGMALFYAGL yielded an amyloid nucleation score of 0.145 ± 1. FWGWLRPWLLKSSEDPLKLE showed an amyloid nucleation score of -0.617 ± 0.57. Work on FWHGSCSLDNDFHS yielded an amyloid nucleation score of -0.442 ± 0.51. With FWPCFSWYC the amyloid nucleation score was 2.16 ± 0.15. In the case of FWVKVLY, the amyloid nucleation score is reported as -0.654 ± 0.37. Substance FYAVVFYYDTDSAARCRFC has an amyloid nucleation score of 6.32 ± 0.075. FYCLSNKFFYIVCRNALQSS showed an amyloid nucleation score of -0.324 ± 0.35. For FYDLFNVNIGLGDFKSVCFL, the amyloid nucleation score was 2.66 ± 0.2. With FYGIARNVLRVGESMARYT the amyloid nucleation score was -0.059 ± 1.2. Substance FYIMTLGYCSWFSVGKRLSP has an amyloid nucleation score of -0.551 ± 0.43. With FYLHRAIWPSYHVSRLVRHR the amyloid nucleation score was -0.979 ± 2.7. With FYLVATCVAFFRLHWFACN the amyloid nucleation score was -0.218 ± 0.36. In the case of FYRNTGFMW, the amyloid nucleation score is reported as -1.42 ± 2.7. With FYSALLGQTRYSRSSRSSTE the amyloid nucleation score was “inactive”. Work on FYSFTGGAVGLGLC yielded an amyloid nucleation score of 1.11 ± 0.49. FYWHHWTNLAIIVEYILGEW showed an amyloid nucleation score of 0.571 ± 1.2. For GACGGKFRVYGKGLILWVRS, the amyloid nucleation score was 0.253 ± 0.37. Work on GAFCWRLVGEGLFVALDVCE yielded an amyloid nucleation score of 0.458 ± 0.87. In the case of GAGLYCR, the amyloid nucleation score is reported as 0.376 ± 0.52. In the case of GAGRNSWRCCNLLFSEDMIG, the amyloid nucleation score is reported as 2.79 ± 0.088. GARQHATVAREAATLCF gave an amyloid nucleation score of 0.094 ± 1.4. With GASWNCAQYRMMD the amyloid nucleation score was -0.338 ± 1.7. For GATVNSVWSVPKQVTWSGMC, the amyloid nucleation score was -0.138 ± 0.32. GAVDSYLQRLFGLFRWDTLK showed an amyloid nucleation score of -0.375 ± 0.64. In the case of GAYCFSVCNHREL, the amyloid nucleation score is reported as -0.365 ± 1.1. With GCALPQYKILWSFRFYWVGN the amyloid nucleation score was “inactive”. GCCSVFQNCCSSRVYIFVPI gave an amyloid nucleation score of 4.87 ± 0.082. With GCDCDQVLKYHARCMYVKDE the amyloid nucleation score was “inactive”.
